{"source": "paper PMC3774712", "about": "“Characterization of a Self-sufficient Trans-Anethole Oxygenase from Pseudomonas putida JYR-1” (PLoS ONE, 2013)", "molecules": {"B1": {"name": "GST-TAO (wild-type, N1-348) (Pseudomonas putida) (protein)", "chain": "MEDIMQGTNAAVSDNRGYKWIAREIERLDPEKDFAEIWRLSTTYYVNDFVMNLVYTLGIPAFTQPPAGSVVMGVTTEKAIKKPQKRTDDTLQHFWTWFEYGPDDPRMQASLAHVNRGHAALAKRSPGTFPARDVIYTTAWIGANLHRLRLSVGLPGFTKNQQIASQRYWAAICRQFWSEDGLVTEYPESFEAMLQYIEDYEAQPWEQVESGRVLTEAIIKQFVDAYFPGPLGWIGRQLYLSFQLPTINGLMQSGKPNPIMKWVMRKGLWFGLTLQERVFPDPKLSTPEKARRKPVRPGQHIDPPTAEVKCPFPGATSQPSIPSADSSGCPFHAGKANGEANNSDLRTN", "notes": "full length TAO (348 aa, 39,328 Da calculated), N-terminal GST tag kept (pGEX-5X-1), expressed in E. coli BL21(DE3), GSTrap purified, 68 kDa on SDS-PAGE"}}, "key": {"[1]": {"target": "T1, GST-TAO (wild-type, N1-348) (Pseudomonas putida, UniProt H8Y0R3)", "T1 construct": "full length TAO (348 aa, 39,328 Da calculated), N-terminal GST tag kept (pGEX-5X-1), expressed in E. coli BL21(DE3), GSTrap purified, 68 kDa on SDS-PAGE", "T1 sequence (H8Y0R3 1-348)": "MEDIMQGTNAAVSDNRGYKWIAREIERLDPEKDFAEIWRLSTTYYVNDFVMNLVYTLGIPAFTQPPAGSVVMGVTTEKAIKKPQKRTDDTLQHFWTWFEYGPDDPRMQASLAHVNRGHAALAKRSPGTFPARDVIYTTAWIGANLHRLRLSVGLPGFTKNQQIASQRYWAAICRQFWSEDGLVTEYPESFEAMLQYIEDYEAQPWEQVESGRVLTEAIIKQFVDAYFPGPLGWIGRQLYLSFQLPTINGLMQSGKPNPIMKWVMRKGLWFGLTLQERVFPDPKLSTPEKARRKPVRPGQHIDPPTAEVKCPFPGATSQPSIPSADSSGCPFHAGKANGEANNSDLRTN", "assay": "ultrafiltration, fluorescence of unbound FAD", "format": "binding", "details": "3 µM FAD, 3 µM enzyme, 20 mM Tris-HCl pH 8.0, 25°C", "description": "ultrafiltration, fluorescence of unbound FAD on GST-TAO (wild-type, N1-348)"}, "[2]": {"target": "T2, GST-TAO (N1–104) (Pseudomonas putida, UniProt H8Y0R3)", "T2 construct": "N-terminal fragment residues 1-104, N-terminal GST tag kept, expressed in E. coli BL21(DE3), purified", "T2 sequence (H8Y0R3 1-104)": "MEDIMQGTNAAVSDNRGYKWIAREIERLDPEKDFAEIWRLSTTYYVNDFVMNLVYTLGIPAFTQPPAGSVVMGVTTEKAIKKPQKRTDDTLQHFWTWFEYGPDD", "assay": "ultrafiltration, fluorescence of unbound FAD", "format": "binding", "details": "3 µM FAD, 3 µM enzyme, 20 mM Tris-HCl pH 8.0, 25°C", "description": "ultrafiltration, fluorescence of unbound FAD on GST-TAO (N1–104)"}, "[3]": {"target": "T3, GST-TAO (N1–261) (Pseudomonas putida, UniProt H8Y0R3)", "T3 construct": "N-terminal fragment residues 1-261, N-terminal GST tag kept, expressed in E. coli BL21(DE3), purified", "T3 sequence (H8Y0R3 1-261)": "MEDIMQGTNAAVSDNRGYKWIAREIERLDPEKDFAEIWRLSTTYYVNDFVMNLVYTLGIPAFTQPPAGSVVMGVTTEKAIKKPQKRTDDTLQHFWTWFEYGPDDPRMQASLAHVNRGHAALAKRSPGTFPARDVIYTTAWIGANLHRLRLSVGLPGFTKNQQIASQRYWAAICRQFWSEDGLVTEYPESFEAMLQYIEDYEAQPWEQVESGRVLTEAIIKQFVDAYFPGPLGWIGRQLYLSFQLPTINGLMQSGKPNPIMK", "assay": "ultrafiltration, fluorescence of unbound FAD", "format": "binding", "details": "3 µM FAD, 3 µM enzyme, 20 mM Tris-HCl pH 8.0, 25°C", "description": "ultrafiltration, fluorescence of unbound FAD on GST-TAO (N1–261)"}, "[4]": {"target": "T4, GST-TAO (N1–174) (Pseudomonas putida, UniProt H8Y0R3)", "T4 construct": "N-terminal fragment residues 1-174, N-terminal GST tag kept, expressed in E. coli BL21(DE3), purified", "T4 sequence (H8Y0R3 1-174)": "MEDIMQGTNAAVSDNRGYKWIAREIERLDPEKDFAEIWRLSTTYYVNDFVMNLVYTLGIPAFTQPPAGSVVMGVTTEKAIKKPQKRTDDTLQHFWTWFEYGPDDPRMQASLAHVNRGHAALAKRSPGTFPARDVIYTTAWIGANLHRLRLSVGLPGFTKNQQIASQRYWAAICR", "assay": "ultrafiltration, fluorescence of unbound FAD", "format": "binding", "details": "3 µM FAD, 3 µM enzyme, 20 mM Tris-HCl pH 8.0, 25°C", "description": "ultrafiltration, fluorescence of unbound FAD on GST-TAO (N1–174)"}, "[5]": {"target": "T5, GST-TAO (N1–304) (Pseudomonas putida, UniProt H8Y0R3)", "T5 construct": "N-terminal fragment residues 1-304, N-terminal GST tag kept, expressed in E. coli BL21(DE3), purified", "T5 sequence (H8Y0R3 1-304)": "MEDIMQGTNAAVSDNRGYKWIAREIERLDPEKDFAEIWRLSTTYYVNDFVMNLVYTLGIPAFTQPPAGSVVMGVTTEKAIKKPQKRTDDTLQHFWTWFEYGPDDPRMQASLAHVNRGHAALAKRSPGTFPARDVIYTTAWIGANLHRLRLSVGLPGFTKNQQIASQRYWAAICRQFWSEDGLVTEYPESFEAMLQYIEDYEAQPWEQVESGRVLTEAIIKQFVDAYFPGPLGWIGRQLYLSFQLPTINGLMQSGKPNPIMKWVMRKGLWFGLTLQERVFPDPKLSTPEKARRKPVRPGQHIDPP", "assay": "ultrafiltration, fluorescence of unbound FAD", "format": "binding", "details": "3 µM FAD, 3 µM enzyme, 20 mM Tris-HCl pH 8.0, 25°C", "description": "ultrafiltration, fluorescence of unbound FAD on GST-TAO (N1–304)"}, "[6]": {"target": "T6, GST-TAO (N175–348) (Pseudomonas putida, UniProt H8Y0R3)", "T6 construct": "C-terminal fragment residues 175-348 (plasmid pGEX-TAO (C174)), N-terminal GST tag kept, expressed in E. coli BL21(DE3), purified", "T6 sequence (H8Y0R3 175-348)": "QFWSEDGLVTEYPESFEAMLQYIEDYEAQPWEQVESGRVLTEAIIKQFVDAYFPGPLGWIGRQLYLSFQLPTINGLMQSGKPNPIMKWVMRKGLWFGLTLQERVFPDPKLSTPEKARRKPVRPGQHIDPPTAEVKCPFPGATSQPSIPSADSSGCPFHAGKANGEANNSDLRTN", "assay": "ultrafiltration, fluorescence of unbound FAD", "format": "binding", "details": "3 µM FAD, 3 µM enzyme, 20 mM Tris-HCl pH 8.0, 25°C", "description": "ultrafiltration, fluorescence of unbound FAD on GST-TAO (N175–348)"}, "[7]": {"substrate": "C/C=C/c1ccc(OC)cc1", "assay": "HPLC of p-anisaldehyde product, Michaelis-Menten nonlinear regression", "format": "biochemical, Pseudomonas putida", "details": "10 mM NADH, 15 µM FAD, pH 8.0, 30°C, formate dehydrogenase regeneration, text b30 prints 64.70±2.40", "description": "HPLC of p-anisaldehyde product, Michaelis-Menten nonlinear regression on GST-TAO (wild-type, N1-348)"}, "[8]": {"substrate": "C/C=C/c1ccc(OC)c(OC)c1", "assay": "purified protein", "details": "10 mM NADH, 15 µM FAD, pH 8.0, 30°C, formate dehydrogenase regeneration", "excerpt": "(§1) HPLC of aldehyde product, Michaelis-Menten nonlinear regression on GST-TAO (wild-type, N1-348)"}, "[9]": {"substrate": "CC=Cc1ccc(O)c(OC)c1", "assay": "purified protein", "details": "10 mM NADH, 15 µM FAD, pH 8.0, 30°C, formate dehydrogenase regeneration", "excerpt": "as §1"}, "[10]": {"substrate": "CC=Cc1ccc2c(c1)OCO2", "assay": "purified protein", "details": "10 mM NADH, 15 µM FAD, pH 8.0, 30°C, formate dehydrogenase regeneration", "excerpt": "as §1"}}}
{"molecule": "Cc1cc2nc3c(=O)[nH]c(=O)nc-3n(C[C@H](O)[C@H](O)[C@H](O)COP(=O)(O)OP(=O)(O)OC[C@H]3O[C@@H](n4cnc5c(N)ncnc54)[C@H](O)[C@@H]3O)c2cc1C", "note": "[FAD]", "values": [{"measurement": "μM FAD/μM enzyme", "setting": "[1]", "result": "0.30±0.05", "unit": "µM FAD/µM enzyme"}, {"measurement": "μM FAD/μM enzyme", "setting": "[2]", "result": "0.20±0.01", "unit": "µM FAD/µM enzyme"}, {"measurement": "μM FAD/μM enzyme", "setting": "[3]", "result": "0.15±0.04", "unit": "µM FAD/µM enzyme"}, {"measurement": "μM FAD/μM enzyme", "setting": "[4]", "result": "0.18±0.03", "unit": "µM FAD/µM enzyme"}, {"measurement": "μM FAD/μM enzyme", "setting": "[5]", "result": "0.19±0.04", "unit": "µM FAD/µM enzyme"}, {"measurement": "μM FAD/μM enzyme", "setting": "[6]", "result": "0.02±0.02", "unit": "µM FAD/µM enzyme"}]}
{"molecule": "B1", "values": [{"measurement": "Km", "setting": "[7]", "result": "63.70 ± 2.40", "unit": "µM"}, {"measurement": "Vmax", "setting": "[7]", "result": 0.23, "unit": "µmol/min/mg"}, {"measurement": "kcat", "setting": "[7]", "result": 0.49, "unit": "s⁻¹"}, {"measurement": "kcat/Km", "setting": "[7]", "result": 7690, "unit": "M⁻¹ s⁻¹"}, {"measurement": "Km", "setting": "[8]", "result": "225.65 ± 22.27", "unit": "µM"}, {"measurement": "Vmax", "setting": "[8]", "result": 0.06, "unit": "µmol/min/mg"}, {"measurement": "kcat", "setting": "[8]", "result": 0.13, "unit": "s⁻¹"}, {"measurement": "kcat/Km", "setting": "[8]", "result": 560, "unit": "M⁻¹ s⁻¹"}, {"measurement": "Km", "setting": "[9]", "result": "2255.00 ± 346.48", "unit": "µM"}, {"measurement": "Vmax", "setting": "[9]", "result": 0.52, "unit": "µmol/min/mg"}, {"measurement": "kcat", "setting": "[9]", "result": 1.13, "unit": "s⁻¹"}, {"measurement": "kcat/Km", "setting": "[9]", "result": 500, "unit": "M⁻¹ s⁻¹"}, {"measurement": "Km", "setting": "[10]", "result": "229.50 ± 32.10", "unit": "µM"}, {"measurement": "Vmax", "setting": "[10]", "result": 0.26, "unit": "µmol/min/mg"}, {"measurement": "kcat", "setting": "[10]", "result": 0.56, "unit": "s⁻¹"}, {"measurement": "kcat/Km", "setting": "[10]", "result": 2450, "unit": "M⁻¹ s⁻¹"}]}
